Target: TolB construct MV37 (TolB Δ1–22) (E. coli) (UniProt P0A855)
Assay: SPR

Row | Substance | Kd
1 | TolAIII construct YZ74 (TolAIII Y352H,V407E) (domain or fragment) | 23.6 µM
2 | TolAIII construct YZ48 (wild-type TolAIII) (domain or fragment) | 4.1 µM
